Experimental data reported in the DeepSol protein solubility set.

Assay: soluble on expression in E. coli; label from the status in PepcDB or PDB records

| Sequence | soluble on expression in E. coli |
| --- | --- |
| MGSDKIHHHHHHMLVELKKPKLKDGKDQLRSYCNATGSPIAVWTNGDQISYYQRKDPNYFEDIPGLPNANQTLADILQIKFTLEDLIANDKLVKENKSLKTLIEEMEDDVLANAGVDVFEELFKLIFTKLYDEWYSGQGNRRSTRSLEFRNTGQTEAALKTKIQDLFDKAKKKWEGVFSEDAKISLTPSHLSVCVSSLENVKLFNSNLDVIDEAFEYLINQSSKGEKGQFFTPRYVIDLCVKMLNPQEDEYMIDTAAGSSGFPVHTIFHVWRQILDDEGLSASHLFSLEDKPPRCKEYVEDKVFAIDFDEKAVRVARTLNLIAGDGQTNVLHLNTLDYELWDEVTEQDDWDDIYHEGFKRLKRLRPKNSKDYREFQFDVLMANPPFAGDIKEPDTVGECNTYLYLKVLCKLKPSICRCSF | not soluble |
| MTGPVTRADPTPGLRTGRRPGNPDTRSRILAAARKLFAQNGFDKTSVRSVATGAGVDSALIHHYFGTKRELFLASVDIPVDPTQVIAPVLDIPTGEVGSHLARAVFSVWESPHKPAVVAAFRSAMAGNEPNLIRTFLLEVVLRDLGPRVDEPPGTGMLRMQLVASQMAGVLVTRYILEFEPLASLPVDDLVAIVGPTLQRYLTGALP | not soluble |
| MGSDKIHHHHHHCDSGSDAVSYGVGTLSLGLSANPSFSTKTRSVNEAEYKKADNYQVTVKDADGASLYNGLYKDMPLSIDLTAGKGYTVKAFYGENVNAGFDKLYVEGSQEFTVSEGEQKNVILYCKPANVKVSVVYTEDFLKYYSDCTVSLSTSHLTAPFEVNMKKDSGKDAYLKANADGEKVSITVGGFRDKEGNEVVMEALVAEKKVAPKTHLTITVDPEVITISTGTASLDVTVDTGTEDKDVNIEIPEEYWPGNASK | not soluble |
| MNALIVPQWPLPKGVAACSSTRIGGVSLSPYDSLNLGAHCGDNPEHVEENRKRLFAAGNLPSKPVWLEQVHGKNVLRLTGEPYASKRADASYSNTPGTVCAVMTADCLPVLFCNREGTEVAAAHAGWRGLCEGVLEETVTCFADKPENIIAWLGPAIGPAAFEVGPEVRDAFLAKDAQADSAFLPHGEKFLADIYQLARQRLANTGVEHVYGGDRCTFSESETFFSYRRDKTTGRMASFIWLI | soluble |
| MAHHHHHHMSLCHTASRWRSVQCTGDIPPGRIGHTLCANGTETKIFLYGGVNDRNESISNYLDDLYVFDVNKKHWSKIEMTGQVQCSRAFHSAVYYEGKIYIFGGCNGRGRFNKLFSTSEEGLCAQIEASGQPPSTRYCHSAVLFERCMYIFAGKCGGRNSNRRLSDLYLFDFQTNTWMECPQHGDPPTPRSAHAAFTCGRNMIMFGGRSAQGECCEDMYMYNYDTCMWRPIESPNSGPLFGRARNSVVVHHGKVVVFGGWNGKKKLNDLFTYHVDSNTFEVMHEPDENCPSRRECHVAVVCKNTMVVFGGRFRGEFMSDTAELDLGPKTLKQNCRDWILRSSFKELHSNRGERLPLRLQQFIESWRQLICRVEKIEPRTPLQDSAPNEALSSDSNSQHG | not soluble |
| VVPGDASSVVSVNPAKPLISVCIPMYNNGATIERCLRSILEQEGVEFEIVVVDDDSSDDCAAIAATMLRPGDRLLRNEPRLGLNRNHNKCLEVARGGLIQFVHGDDRLLPGALQTLSRRFEDPSVGMAFAPRRVESDDIKWQQRYGRVHTRFRKLRDRNHGPSLVLQMVLHGAKENWIGEPTAVMFRRQLALDAGGFRTDIYQLVDVDFWLRLMLRSAVCFVPHELSVRRHTAATETTRVMATRRNVLDRQRILTWLIVDPLSPNSVRSAAALWWIPAWLAMIVEVAVLGPQRRTHLKALAPAPFREFAHARRQLPMAD | not soluble |
| MKYLLVDLSGKVDNYDKALYQALEKELSNEKSSIQLLIPGHGLIRLIPNKFSQTEFIVKRLIKALEGGINYIYLLLHVAFKKIDTIHFQWLPFVEVVGIEKYILYLLHVLSPQTKVILTIHNIYPHGVKSMSDSGKQKYKKRFRDTCRNIDNIIVHTESSKMEVIKEFDFVPDIISIVHHGVFIPKIRISKKEFLQKNKYVILQFGLQTYYKGTDILVDAVNLLPAEYSEKIETRIVGGVGESYLQELKGKDSNSLIHWKSYFLSNDELYEEINNSDVLVLPYREISQSGVLLLSIYFEKNIICSDLPSFVETIHGDQDNSLDHDFFFKNNDPSSLCELLMRYIDSNINNEKIQYRIKHLKNLYSWENAAKATISIYRK | not soluble |
| GPGSMTQPSAVVAIGGGLRLLAQPAPTPTADGSSQALTDVFLSEYCAPLQRSSHHLHTHVPRYTVPTPASRRYTPRAGDPVLAIIARKVSQHYYYCYIGGSALAYMDALAFDGATKVSRPRLVEGDVVYCYVKPREGSSYVDGVHRSVASEVFDTTGEVEVSCTAAEVGLPPKDWTSGEAVFGPLQGGRVLHLPLVYVRRLLTPMGSSPEKASAQQRKRDHTEGEGSDGDEVPASYLLQLLGRRVPFEVAVGLNGLVWVRGLSSEADATAAARRTVAVSSCISEAQYDVTRAEMEARVEVYFPS | not soluble |
| MGSDKIHHHHHHMLAIEESQKLTLSNLPSLSLFTGTDQGQFEVMKSQMLKQIGYDSADLNFAYFDMKEVVYKDVELELVSLPFFADEKIVILDYFMDITTAKKRFLTDDELKSFEEYLDNPSPTTKLIIFAEGKLDSKRRLVKLLKRDAKAFDAVEVKEQELRQYFQKWSQKQGLQFTNHSFENLLIKSGFQFSEIQKNLLFLQSYKANSVIEEEDIVNAIPKTLQDNIFDLTQFILTKKMDQARDLVRDLTLQGEDEIKLIAVMLGQFRTFTQVKILAESGQTESQIASSLGSYLGRNPNPYQIKFALRDSRGLSLSFLKQAISYLIETDYQIKTGLYEKGFLFEKALLQIASQVN | not soluble |
| MGSDKIHHHHHHMHNSLVRELVQAGRRTSCLGLTNGKMGIVIALFRYARLSGELTCEDVGCELLDEIYEHLDSSIPISFGSGLWGIGWGIEYLIQNSYMEGDADEVLKDIDQCAARCIHAYGMSGLSLNNGIVGLGRYILIRIIPTFLKGDTVSSAFLKEYLIYLIDWLEERLEYTNESIDDLLDFLFDLYPTGFYRTKVSVLIEKCMNRYNL | not soluble |
| MPSNDIQGLELPQSYFNAAAKRQKYAMKPGLSALEKNAVIKAAYRQIFERDITKAYSQSISYLESQVRNGDISMKEFVRRLAKSPLYRKQFFEPFINSRALELAFRHILGRGPSSREEVQKYFSIVSSGGLPALVDALVDSQEYADYFGEETVPYLRGLGVEALEHHHHHH | soluble |
| GPGSMLRAFASPILAKVPYATLFEYNHVLQKVFEAQPSKVALRCELPGMPEVQFTYGQLQRDVVALADAVVRRKEAVAQARGETSLGWLQPSKPAHVRSVFAQGERTPSCDYMKDTGFYTTSLLCGPGYTYAVSLLASWSLNQLVTPMPISQRYKDELMYVLEHSGSRSIVGNTKLLKEKLPAEYEELYVRAEADVDKIPRSASREPKQRNDSDVTSNTFFVDTVYDATLLVRDITAARDIQGTATLETEWLPPAESVCAPMRSAEDLVKRLDEEKATAKARELDRQAEILQQEHVRRNRAPMQATGGADPAGSDADGESLFCFDSAHLDELNRVYQRWYTMPSARPTKYDDCLMLYTSGTTAKPKGVVHTHASVANMVKVLQNAWQWRDTDSILHVLPWHHVHGLVNILLCAIASNARCVVTTFDDAARVAHRLEQGDITLFMAVPTVYVKLSDAVQRKFSPIEKTGFRRACMESVRLMVCGSAPLPVPTLNQFCELSGHTLLERYGMTEIGMALSQPLHPISDRHPGTVGSPLQTVKTYVHQPETAEAMEQASAKEAEYDEVGGLGIASESLFDRYWNNATATKKEVRTNAAGMRFFDTGDTVGVRLPAGKPAVYTILGRSSVDIIKSRGYKLSALEIEATLLARNDLFYEIAVVGAADAVQGESVVAIVAMQPEAARARGIAFGEGFAWHESAAVTEELKKAALQLLAPYKCPSRYIVVPEIPRNPTGKVNKKDLKKVLGLA | not soluble |
| MKLNNHNLKEIYSLSLNELKEELFKLGLKSFISKQIYSWIYQKRIFNFDKFSNIAKNNVIILKENFSNNLLKINSYQSNSDGSIKFEFLTDKNLIINCMIIKFKNGFLIKINPFGINFKKEIINLSTNELVLQILLIQQFLDQRKLGNITNVIIKGLQDSLLNMDVVSNFINIINNENGLNIGKRKIAVWTSGINVDLIKWGQLQNQIELIISMNASNSLIYQKIMLKKLNQNWSFLKLIEQIKAYTKITNNRVVLEYLLIDKINDDLNYANELVELLKNILCYVLLIPYNLNNYRTSANLDDFFNILSVNKIRISKRIRKSNDLDISFKQLKIKELEHHHHHH | not soluble |
| MDLKITNGFYDPSHLSYEVVERKGLGHPDTLADGIAEQIEIDYSLYCLDKFGVIPHHNFDKIIIRGGHSVQDFGGSDFIEPIKIIFLGRASKKCFNSSIPLFKIQKKAATKYLNRILPNLDVENYVEFETLTSDFTTKTNWFSPEAIEDLPEYLDVPKANDTATMISYWPLTISEELALMIEGYFYKLDKNELPTPRFTKMGGDIKVMVVRNDLEYSIRINFPLISKFFNNDIESQLYVDKHVEKIKKYIEQKYKNISFSIDYHYYLTTTGSCIDFGEEGAVGRGNKTHGIISSFRPNTMEAPAGKNCTYFVGKVWGFLSDTIAKEIYEAFNTPCQIIMQLNIGSKLYRPTHLFIQTEESVDQERVLEIVNRHLNNGKQNTNLILSTQHFIPKTNVYDG | not soluble |
| MKTNVIIDGDACPVVNSVIELTKGTGIFVTILRSFSHFSQQIQPEHVKIVYVDDGPDAVDYKIVELASNNDIVITQDYGLASLLIDKVHTVMHHKGNIYHSNNIQSLLDQRYLNAQIRRRGGRHKGPPPFTTEDRLKFEHAFRKIINQILEHHHHHH | soluble |
| MGHHHHHHSHMKDSEKHIEVEVRKFLALKQTPDFHTVIGDTVTGLLERCKAEPSFYPRNCLMQLIQTHVLSYSLCPDLMEIALKKKDVQLLQLCLQQFPDIPESVTCACLKIFLSIGDDSLQETDVNMESVFDYSINSVHDEKMEEQTEILQNGFNPEEDKCNNCDQELNKKPQDETKESTSCPVVQKRAALLNAILHSAYSETFLLPHLKDIPAQHITLFLKYLYFLYLKCSENATMTLPGIHPPTLNQIMDWICLLLDANFTVVVMMPEAKRLLINLYKLVKSQISVYSELNKIEVSFRELQKLNQEKNNRGLYSIEVLELF | not soluble |
| MGSDKIHHHHHHMSEAINHGIIKSYVDGLTTSTLLMPNLPTAEHAVALAKNYPGLFVGQHTNFLLGKPCADPCMIPSLVDEQGNFHRSSYYRQQKQVTFVYEEVRLETIAQLTRFKELTGHYPEHFDCHSIGDEVVDQVFLELAEEYGLHTTLKYSGEKEYPPQQGYFQVTHLLESGALSYIHEGVSVENFLEDDFGLLRMPESAIAEMHFDVGYLDQFVLDNSSYTTLRCKELATICDPRVRQWFEEQGIERITFGDLKK | not soluble |
| FDNLTDRLSRTLRNISGRGRLTEDNVKDTLREVRMALLEADVALPVVREFINRVKEKAVGHEVNKSLTPGQEFVKIVRNELVAAMGEENQTLNLAAQPPAVVLMAGLQGAGKTTSVGKLGKFLREKHKKKVLVVSADVYRPAAIKQLETLAEQVGVDFFPSDVGQKPVDIVNAALKEAKLKFYDVLLVDTAGRLHVDEAMMDEIKQVHASINPVETLFVVDAMTGQDAANTAKAFNEALPLTGVVLTKVDGDARGGAALSIRHITGKPIKFLGVGEKTEALEPFHPDRIASRILGMGDVLSLIEDIESKVDRAQAEKLASKLKKGDGFDLNDFLEQLRQMKNMGGMASLMGKLPGMGQIPDNVKSQMDDKVLVRMEAIINSMTMKERAKPEIIKGSRKRRIAAGCGMQVQDVNRLLKQFDDMQRMMKKMK | soluble |
| PLGSQYFLKVLIPSYAAGSIIGKGGQTIVQLQKETGATIKLSKSKDFYPGTTERVCLIQGTIEALNAVHGFIAEKIREMPQNVAKTEPVSILQPQTTVNPDRANQVKIIVPNSTAGLIIGKGGATVKAIMEQSGAWVQLSQKPDGINLQNRVVTVSGEPEQNRKAVELIIQKIQEDPQ | soluble |
